Data reported in patent publication US9255257B2, “PmST1 mutants for chemoenzymatic synthesis of sialyl lewis X compounds” (THE REGENTS OF THE UNIVERSITY OF CALIFORNIA, priority 2011, dated 2016).
Substitutions are numbered along the chain they refer to. Numbers in names are those of the source. Entries after “also recorded” stand apart in the source; their conditions may differ.

B1: WT: multifunctional α2-3-sialyltransferase from Pasteurella multocida (PmST1), wild type sequence SEQ ID NO: 13; control enzyme (protein, listed as Pasteurella multocida)
chain: MKNRRLNFKLFFLIIFSLFSTLSWSKTITLYLDPASLPALNQLMDFTQNNEDKTHPRIFGLSRFKIPDNIITQYQNIHFVELKDNRPTEALFTILDQYPGNIELNIHLNIAHSVQLIRPILAYRFKHLDRVSIQQLNLYDDGSMEYVDLEKEENKDISAEIKQAEKQLSHYLLTGKIKFDNPTIARYVWQSAFPVKYHFLSTDYFEKAEFLQPLKEYLAENYQKMDWTAYQQLTPEQQAFYLTLVGFNDEVKQSLEVQQAKFIFTGTTTWEGNTDVREYYAQQQLNLLNHFTQAEGDLFIGDHYKIYFKGHPRGGEINDYILNNAKNITNIPANISFEVLMMTGLLPDKVGGVASSLYFSLPKEKISHIIFTSNKQVKSKEDALNNPYVKVMRRLGIIDESQVIFWDSLKQL
modifications: PmST1 wild-type glycosyltransferase family 80 (GT80), GT80 sialyltransferase, Pm0188Ph
notes: control enzyme
B2: M144D (protein, listed as Pasteurella multocida)
chain: B1 chain with M144D
modifications: PmST1 wild-type glycosyltransferase family 80 (GT80), GT80 sialyltransferase, Pm0188Ph
B3: M144H (protein)
chain: B1 chain with M144H

Experiments:
[1] = α2-3-sialidase activity assay with sialyl Le^x substrate (HPLC); type: biochemical; conditions: for Neu5Ac cleaved from Neu5Acα2-3Le^xβMU: substrate 1 mM, enzyme 4 mg mL^−1, MES pH 5.5, 37° C.
Description: The α2-3-sialidase activity assays of PmST1 and mutants. The reactions were carried out in duplicate in a total volume of 10 μL at 37° C. for 20 hr in MES buffer (100 mM, pH 5.5) containing Neu5Acα2-3Le^xβMU (1 mM) and an enzyme (4 mg mL^−1). Aliquots of 1 μL were withdrawn at 1 hr, 6 hr and 20 hr, and analyzed by HPLC as described above for the α2-3-sialyltransferase assays.

[2] = Thermal stability studies by HPLC; type: physicochemical; conditions: incubating at 37° C. for up to 2 hours
Description: Stability studies by HPLC. Thermal stability studies were carried out by incubating wild-type PmST1 or E271F/R313Y mutant solution (20 μg mL^−1) at 37° C. Samples were withdrawn at various time intervals for enzyme activity assays.

[3] = HPLC time course of PmST1-catalyzed α2-3-sialylation of Le^xβMU; type: biochemical; conditions: Le^xβMU 1 mM, one equivalent of CMP-Neu5Ac
Description: Numbers in parentheses represent the % consumption of CMP-Neu5Ac by capillary electrophoresis (CE) assays.
In fact, donor hydrolysis has been observed in other glycosyltransferase-catalyzed reactions that lead to lower synthetic yields. […] Two recent papers discussed the donor hydrolysis activities of human blood group A and B glycosyltransferases (GTA and GTB) which are Mn^2+-dependent and the UDP-Gal hydrolysis activity of GTB is increased in the presence of an acceptor substrate analog. Nevertheless, the effect of donor hydrolysis of glycosyltransferases on glycosylation processes has not been investigated in detail. In addition, no strategy has been reported for improving the yields of glycosyltransferase-catalyzed reactions by decreasing donor hydrolysis activity.

[4] = Apparent kinetics of the α2-3-sialidase activity (HPLC, fluorescent sialoside substrate); type: biochemical; conditions: substrate Neu5Acα2-3LacβMU
Description: All the sialidase and α2-3-sialyltransferase assays were performed in an HPLC system. Reactions were stopped by adding 10 μL of ethanol. […] The mobile phase was 25% acetonitrile.
Kinetics of the α2-3-sialidase activity of PmST1 mutants.

[5] = Apparent kinetics of the α2-3-sialyltransferase activity, LacβMU acceptor and CMP-Neu5Ac donor (HPLC); type: biochemical; conditions: acceptor LacβMU
Description: To obtain the apparent kinetic parameters of LacβMU as the acceptor for the α2-3-sialyltransferase activity, the kinetic assays were performed in duplicate in reaction mixtures of 10 μL containing Tris-HCl buffer (100 mM, pH 8.5), a fixed concentration of CMP-Neu5Ac (1 mM), different concentrations of LacβMU (0.2, 0.5, 1.0, 2.0, 5.0, and 9.0 mM) and the mutant proteins (2 μg mL^−1 of E271F, 2 μg mL^−1 of R313Y, and 1.6 μg mL^−1 of E271F/R313Y). All reactions were allowed to proceed at 37° C. for 5 min (E271F), 7 min (R313Y), and 10 min (E271F/R313Y). The apparent kinetic parameters were obtained by fitting the experimental data (the average values of duplicate assay results) into the Michaelis-Menten equation using Grafit 5.0.
To obtain the apparent kinetic parameters of CMP-Neu5Ac as the donor for the α2-3-sialyltransferase activity, the kinetic assays were performed in duplicate in reaction mixtures of 10 μL containing Tris-HCl buffer (100 mM, pH 8.5), a fixed concentration of LacβMU (1 mM), different concentrations of CMP-Neu5Ac (0.1, 0.2, 0.5, 1.0, 2.0, 5.0, 10.0 and 20.0 mM) and the mutant proteins (2 μg mL^−1 of E271F, 2 μg mL^−1 of R313Y, and 1.6 μg mL^−1 of E271F/R313Y). All reactions were allowed to proceed at 37° C. for 2 min (E271F), 7 min (R313Y), and 5 min (E271F/R313Y). The apparent kinetic parameters were obtained by fitting the experimental data (the average values of duplicate assay results) into the Michaelis-Menten equation using Grafit 5.0.
All the sialidase and α2-3-sialyltransferase assays were performed in an HPLC system. Reactions were stopped by adding 10 μL of ethanol. After necessary dilutions were performed to adjust the concentrations of the fluorescent-labeled compounds, the samples were then kept on ice until aliquots of 8 μL were injected and analyzed by a Shimadzu LC-6AD system equipped with a membrane on-line degasser, a temperature control unit, and a fluorescence detector (Shimadzu RF-10AXL). A reverse-phase Premier C18 column (250×4.6 mm i.d., 5 μm particle size, Shimadzu) protected with a C18 guard column cartridge was used. The mobile phase was 25% acetonitrile. The fluorescent compounds LacβMU and Neu5Acα2-3LacβMU were detected by excitation at 325 nm and emission at 372 nm.
Kinetics of the α2-3-sialyltransferase activity of PmST1 mutants by HPLC analysis. […] The supernatants were diluted with 25% acetonitrile and kept on ice until aliquots of 8 μL were injected and analyzed by the Shimadzu LC-6AD system equipped with a membrane on-line degasser, a temperature control unit, and a fluorescence detector (Shimadzu RF-10AXL). […] The fluorophore (MU)-labeled compounds were detected by excitation at 325 nm and emission at 372 nm. […]

[6] = Apparent kinetics of the α2-3-sialyltransferase activity, Le^xβMU acceptor and CMP-Neu5Ac donor (HPLC); type: biochemical; conditions: acceptor Le^xβMU
[7] = Kinetics of the donor (CMP-Neu5Ac) hydrolysis activity by capillary electrophoresis; type: biochemical
Description: The reactions were stopped by adding 10 μL of pre-chilled ethanol. The mixtures were incubated on ice for 30 min and centrifuged at 13,000 rpm for 5 min. The supernatants were diluted with borate buffer (25 mM, pH 9.5) and aliquotes of 5 μL each were injected to a Beckman Coulter P/ACE™ MDQ Capillary Electrophoresis system equipped with a capillary (60 cm×75 μm i.d.) and monitored at 254 nm. The apparent kinetic parameters were obtained by fitting the experimental data (the average values of duplicate assay results) into the Michaelis-Menten equation using Grafit 5.0.

Row | Molecule | Neu5Ac cleaved from Neu5Acα2-3Le^xβMU ([1]; 1 h) [%] | Neu5Ac cleaved from Neu5Acα2-3Le^xβMU ([1]; 6 h) [%] | Neu5Ac cleaved from Neu5Acα2-3Le^xβMU ([1]; 20 h) [%] | thermal stability of α2-3-sialyltransferase activity (FIG. 3, in words) [2] | time to reach yield plateau [3] [min] | yield plateau of sialylation of Le^xβMU [3] | decrease of α2-3-sialidase activity (catalytic efficiency kcat/Km) compared to wild-type PmST1 [4] [fold] | decrease of kcat value, α2-3-sialyltransferase activity, compared to WT [5] [fold] | decrease of α2-3-sialyltransferase activity compared to WT [5] [fold] | increase of Km value, α2-3-sialyltransferase activity, compared to WT [5] [fold] | change of efficiency of α2-3-sialyltransferase activity compared to WT (in words) [6] | decrease of efficiency of CMP-Neu5Ac (donor) hydrolysis activity compared to WT [7] [fold] | decrease of kcat value, donor hydrolysis, compared to WT [7] [fold] | increase of Km value, donor hydrolysis, compared to WT [7] [fold] | sialidase activity with Neu5Acα2-3Le^xβMU as substrate (in words) [1] | increase of efficiency of α2-3-sialyltransferase activity compared to WT [6] [fold] | increase of kcat value, donor hydrolysis, compared to WT [7] [fold]
1 | B1 | 2.0 | 7.0 | 7.5 | did not decrease their activities significantly | ≤ 2 | 1.1-1.3% |  |  |  |  |  |  |  |  |  |  | 
2 | B2 |  |  |  |  |  |  | 5588 | 2 | 18 | 9 | did not change the efficiency of the α2-3-sialyltransferase activity of PmST1 significantly; also recorded: without appreciably changing the efficiency of the α2-3-sialyltransferase activity | 20 | 4.2 | 4.9 | no sialidase activity |  | 
3 | B3 | 10.0 | 24.5 | 34.0 |  |  |  | 594 |  | 1.3 |  |  | 3.3 |  | 8.7 | increased sialidase activity compared to the WT PmST1 | 2.6 | 2.6
